Results on two substances are retold here after PMC7948958.

For experiment [1], the target named is pyrene-labeled rabbit skeletal actin filaments (rabbit) (UniProt P68135). The experiment is described as follows: other fluorescence titration; stopped-flow, quenching of pyrene-actin fluorescence; 0.05-0.3 μM EGFP-M15-2IQ mixed with 0.5-3 μM pyrene actin; with saturating ADP (0.5 mM in the text, 1 mM in the legend), apyrase omitted; apparent rate constants from linear fit of kobs against [actin], KD …; 20-mM Mops (pH 7.0), 100-mM KCl, 5-mM MgCl2, 0.1-mM EGTA, 20 °C.

Experiment [2] addresses rabbit skeletal actin filaments (rabbit) (UniProt P68135).
Experiment [3] addresses pyrene-labeled rabbit skeletal actin filaments (rabbit) (UniProt P68135). As to the kind of experiment: other fluorescence titration; stopped-flow, quenching of pyrene-actin fluorescence; 0.05-0.3 μM EGFP-M15-2IQ mixed with 0.5-3 μM pyrene actin; nucleotide-free (apyrase-treated); apparent rate constants from linear fit of kobs against [actin], KD calculated as k-6/k+6; 20-mM Mops (pH 7.0), 100-mM KCl, 5-mM MgCl2, 0.1-mM EGTA, 20 °C.

In experiment [4] the target is rabbit skeletal actin filaments (rabbit) (UniProt P68135). The source holds these as a separate data set.

As to “EGFP-M15-2IQ motor domain complex (EGFP-M15-2IQ:ELC:RLC) (from UniProt Q9QZZ4-3 1-743; P60661 1-151)”, in experiment [1], the Kd worked out at 0.31 µM, the koff turned out to be 0.55 s⁻¹ and the kon was determined as 1.75e+06 M⁻¹ s⁻¹. In addition, in experiment [2], the actin-activated steady-state ATPase (NADH assay, 10-mM KCl, 20 °C), K ATPase; myosin from Sf9 coexpressing UNC45A (baculovirus) stood at 0.0061 mM and the actin-activated steady-state ATPase (NADH assay, 10-mM KCl, 20 °C), K ATPase; myosin from Sf9 coexpressing UNC45B (baculovirus) was 0.0104 mM. Besides, in experiment [3], the Kd was 0.2 µM, the off-rate (koff) is 0.65 s⁻¹ and the association rate constant (kon) was 3.18e+06 M⁻¹ s⁻¹. Further, the actin-activated phosphate release (double-mixing stopped flow, MDCC-PbP), apparent association rate constant K9·k′+4 of M·ADP·Pi with actin, from the fast phase against [actin] up to 50 μM in experiment [4] was 130000 M⁻¹ s⁻¹.

“M15-2IQ-EGFP motor domain complex (M15-2IQ-EGFP:ELC:RLC) (from UniProt Q9QZZ4-3 1-743; P60661 1-151)”: in experiment [2], the actin-activated steady-state ATPase (NADH assay, 10-mM KCl, 20 °C), K ATPase; myosin from the Sf9-UNC45A cell line turned out to be 0.0052 mM and the actin-activated steady-state ATPase (NADH assay, 10-mM KCl, 20 °C), K ATPase; myosin from the Sf9-UNC45B cell line stood at 0.007 mM.
